In patent publication US20240158497A1 (published 2024):

B1: MAb16614 (antibody, V domains shown)
VH: QVQLVESGGGVVQPGGSLRLSCAASGFTFSTYDIHWVRQAPGKGLEWVAVISFDGSNRNYGDSVKGRFTISRDNSDNTLFLEMNNLRFEDTAVYYCAKEGYGVDFQHWGQGTLVTVSS
VL: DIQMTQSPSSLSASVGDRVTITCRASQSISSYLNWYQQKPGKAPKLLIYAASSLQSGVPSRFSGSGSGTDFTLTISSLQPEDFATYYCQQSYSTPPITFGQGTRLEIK
B2: MAb16618 (antibody, V domains shown)
VH: QVQLQESGPGLVKPSETLSLTCTVSGGSISNYYWTWIRQPPGKGLEWIGHISNSGTTNYNPSLKSRVTISVDTSKNQFSLKLTSVTAADTAVYYCARLPLGIAAVDTDYYYYFGMDVWGQGTTVTVSS
VL: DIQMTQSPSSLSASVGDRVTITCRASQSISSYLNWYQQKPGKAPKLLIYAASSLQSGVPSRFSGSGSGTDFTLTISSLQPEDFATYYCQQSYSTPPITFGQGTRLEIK
B3: MAb16622 (antibody, V domains shown)
VH: EVQLVESGGGVVRPGGSLRLSCTASGFTFDDYGMSWVRQAPGKGLEWVSGINWNGGRTEYADAVKGRFIISRDNAKNSLYLQMNSLRAEDTALYFCARTELRWDYWGQGTLVTVSS
VL: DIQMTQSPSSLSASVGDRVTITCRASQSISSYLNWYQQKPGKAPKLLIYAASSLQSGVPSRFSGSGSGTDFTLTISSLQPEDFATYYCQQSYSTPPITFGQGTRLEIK
B4: MAb16683 (antibody, V domains shown)
VH: QVQLVESGGGLVKPGGSLRLSCAASGFTFSDYYMTWIRQTPGKGLDWVSYISSSGTNKYNADSVKGRFTISRDNAKNSLYLQMNSLRAEDTAVYYCVRDPPWGMDVWGQGTTVTVSS
VL: not shown
B5: MAb16623 (antibody, V domains shown)
VH: EVQLVESGGGLVQPGGSLRLSCAASGLTFSSYEMNWVRQAPGKGLEWVSHISSAGSTKYYADSVKGRFTISRDNAKNSLFLQMNSLRAEDTAIYYCAGYNYAYYYFGVDVWGQGTTVTVSS
VL: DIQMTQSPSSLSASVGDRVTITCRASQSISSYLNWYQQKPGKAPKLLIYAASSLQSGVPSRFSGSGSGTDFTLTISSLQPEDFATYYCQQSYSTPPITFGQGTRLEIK
B6: MAb16669 (antibody, V domains shown)
VH: EVQLVESGGGLVQPGGSLRLSCAASGFTFSSYAMNWVRQAPGKGLEWVSAISGSGDSTYYTDSVKGRFTISRDNSKNTLYLQMNTLRAEDTAVYYCAKEEIVMLVGATPGWFDPWGQGTLVTVSS
VL: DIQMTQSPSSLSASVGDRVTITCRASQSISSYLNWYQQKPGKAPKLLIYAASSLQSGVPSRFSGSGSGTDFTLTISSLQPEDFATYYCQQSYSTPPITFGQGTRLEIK
B7: MAb16676 (antibody, V domains shown)
VH: QVQLVQSGAEVMKPGASVKVSCRASGYTFSSYDINWVRQAPGQGLEWMGWISTATGNTNYPQKVQGRVTMTTDTSTNTAYMELRSLRSDDTAVYYCTREGNSKGWLDPWGQGTLVTVSS
VL: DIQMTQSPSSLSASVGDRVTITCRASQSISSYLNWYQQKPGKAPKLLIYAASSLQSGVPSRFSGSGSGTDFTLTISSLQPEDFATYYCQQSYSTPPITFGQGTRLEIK
notes: captured through anti-human Fc
B8: MAb16682 (antibody, V domains shown)
VH: EVQLVESGGGLVQPGGSLRLSCAASGFTFSTYWMNWVRQAPGKGLEWVANIKEDGSEKYYVDSVKGRFTISRDNAKNSLYLQMNSLRAEDTAVYYCAREGFGVVTYIWGQGTMVTVSS
VL: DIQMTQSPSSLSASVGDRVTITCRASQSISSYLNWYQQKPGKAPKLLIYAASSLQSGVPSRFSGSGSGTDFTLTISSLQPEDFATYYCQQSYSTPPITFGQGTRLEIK
notes: as for B7
B9: MAb16683 (antibody, V domains shown)
VH: B4 VH
VL: not shown
notes: as for B7
B10: MAb16680 (antibody, V domains shown)
VH: QVQLQQSGPGQMKSSQTLTLTCAISGDSVSSNSAIWYWIRQSPSRGLEWLGRTKFRSKWYNDFALSMKSRITINPDTSKNQFSLHLNSVTPEDTAVYYCARYKWELYFDYWGQGTLVTVSS
VL: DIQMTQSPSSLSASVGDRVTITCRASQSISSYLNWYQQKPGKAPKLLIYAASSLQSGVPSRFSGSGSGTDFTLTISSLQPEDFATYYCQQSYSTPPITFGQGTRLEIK

The binders below were run against T1, human GP130 delta D1-D3 expressed with a C-terminal myc-myc hexahistidine tag (human, UniProt P40189 329-619) (assay: Luminex, myc-captured antigen).
T1 construct: CHO supernatant, captured on anti-myc microspheres; also called human GP130 delta D1-D3-MMH
Procedure: Aliquots of microspheres with immobilized anti-myc monoclonal antibodies, prepared as described above, were added individually to 1 mL of the each of these protein supernatants and to 500 uL of purified GP130 protein. The microspheres were gently mixed, incubated for two hours at 25° C., washed twice with 1 mL of DBPS, centrifuged to remove the supernatant and finally resuspended in 1 mL of DPBS buffer. Forty eight μL of anti-myc IgG coupled microspheres from individual reactions with full length human GP130 and with each of the human GP130 domain proteins were withdrawn and mixed together in 3.6 mL of PBS+20 mg/mL BSA+0.05% sodium azide (blocking buffer).
From this mixed pool, 75 μL of microspheres were plated per well on a 96 well filter plate (Millipore, Cat. No: MSBVN1250) and mixed with 25 μL of individual anti-human GP130 monoclonal antibodies (0.5 or 5 μg/mL), incubated for two hours at 25° C. and then washed twice with 200 μL of DPBS with 0.05% Tween 20 (washing buffer). To detect and quantify the amounts of bound anti-GP130 antibody levels to individual microspheres, either 100 μL of 2.5 μg/mL R-Phycoerythrin conjugated goat F(ab′)2 anti-human kappa (Southern Biotech, Cat #2063-09) in blocking buffer, was added and incubated for 30 minutes at 25° C. After 30 minutes, the samples were washed twice with 200 μL of washing buffer and resuspended in 150 μL of wash buffer. The Median Fluorescence intensity (MFI) of the microspheres was measured in a Luminex Analyzer.

T1 sequence (P40189 other isoform, or with tags, fused parts or gaps mutant limits assumed): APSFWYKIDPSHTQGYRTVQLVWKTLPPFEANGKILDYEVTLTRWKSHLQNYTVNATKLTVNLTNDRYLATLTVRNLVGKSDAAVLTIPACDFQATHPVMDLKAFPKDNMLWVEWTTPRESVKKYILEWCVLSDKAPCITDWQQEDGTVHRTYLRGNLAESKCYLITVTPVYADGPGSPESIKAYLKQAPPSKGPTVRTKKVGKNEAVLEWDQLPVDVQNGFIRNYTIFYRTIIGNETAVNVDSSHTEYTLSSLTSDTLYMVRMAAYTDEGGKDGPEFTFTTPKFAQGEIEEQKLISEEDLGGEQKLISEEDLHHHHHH

Binder | binding result
B1 | no binding (tested: 0.5 or 5 µg/mL)
B2 | no binding (tested: 0.5 or 5 µg/mL)
B3 | no binding (tested: 0.5 or 5 µg/mL)

The binders below were run against T2, human GP130 extracellular domain expressed with a C-terminal myc-myc-hexahistidine tag (human, UniProt P40189 23-619) (assay: SPR 25C, mAb captured, hGP130-MMH injected).
T2 construct: monomeric; also called hGP130-mmH; hGP130-MMH
Procedure: (§1) Equilibrium dissociation constant (KD) for different GP130 reagents binding to purified anti-GP130 monoclonal antibodies were determined using a real-time surface plasmon resonance based Biacore 4000 biosensor. All binding studies were performed in 10 mM HEPES, 150 mM NaCl, 3 mM EDTA, and 0.05% v/v Surfactant Tween-20, pH 7.4 (HBS-ET) running buffer at 25° C. and 37° C. The Biacore sensor surface was first derivatized by amine coupling with a monoclonal mouse anti-human Fc antibody (GE, #BR-1008-39) to capture anti-GP130 monoclonal antibodies. […] Reagents tagged with “mmH” are monomeric, whereas reagents tagged with “mFc” are dimeric. Thus, for example, “hGP130-mmH” is also referred to as “monomeric human GP130,” and “hGP130-mFc” is also referred to as “dimeric human GP130.”
(§2) The association rate (k a) and dissociation rate (kd) were determined by fitting the real-time binding sensorgrams to a 1:1 binding model with mass transport limitation using Scrubber 2.0c curve-fitting software. Binding dissociation equilibrium constant (KD) and dissociative half-life (t ½) were calculated from the kinetic rates as: […]

Binder | 100 nM Ag Bound (RU) | Kd [nM] | koff [s⁻¹] | kon [M⁻¹ s⁻¹] | t½ [min]
B1 | 18 | 183 | 0.0101 | 55200 | 1.1
B2 | 52 | 120 | 0.0425 | 354000 | 0.3
B4 | 54 | 46.7 | 0.00325 | 69700 | 4
B3 | 36 | 203 | 0.0243 | 120000 | 0.5
B5 | 77 | 21 | 0.00377 | 180000 | 3
B6 | 17 | 35.4 | 0.000403 | 11400 | 29

Target: T3, human GP130 extracellular domain expressed with a C-terminal mouse IgG2a Fc tag (hGP130-mFc) (human)
T3 construct: also called dimeric human GP130
T3 chain: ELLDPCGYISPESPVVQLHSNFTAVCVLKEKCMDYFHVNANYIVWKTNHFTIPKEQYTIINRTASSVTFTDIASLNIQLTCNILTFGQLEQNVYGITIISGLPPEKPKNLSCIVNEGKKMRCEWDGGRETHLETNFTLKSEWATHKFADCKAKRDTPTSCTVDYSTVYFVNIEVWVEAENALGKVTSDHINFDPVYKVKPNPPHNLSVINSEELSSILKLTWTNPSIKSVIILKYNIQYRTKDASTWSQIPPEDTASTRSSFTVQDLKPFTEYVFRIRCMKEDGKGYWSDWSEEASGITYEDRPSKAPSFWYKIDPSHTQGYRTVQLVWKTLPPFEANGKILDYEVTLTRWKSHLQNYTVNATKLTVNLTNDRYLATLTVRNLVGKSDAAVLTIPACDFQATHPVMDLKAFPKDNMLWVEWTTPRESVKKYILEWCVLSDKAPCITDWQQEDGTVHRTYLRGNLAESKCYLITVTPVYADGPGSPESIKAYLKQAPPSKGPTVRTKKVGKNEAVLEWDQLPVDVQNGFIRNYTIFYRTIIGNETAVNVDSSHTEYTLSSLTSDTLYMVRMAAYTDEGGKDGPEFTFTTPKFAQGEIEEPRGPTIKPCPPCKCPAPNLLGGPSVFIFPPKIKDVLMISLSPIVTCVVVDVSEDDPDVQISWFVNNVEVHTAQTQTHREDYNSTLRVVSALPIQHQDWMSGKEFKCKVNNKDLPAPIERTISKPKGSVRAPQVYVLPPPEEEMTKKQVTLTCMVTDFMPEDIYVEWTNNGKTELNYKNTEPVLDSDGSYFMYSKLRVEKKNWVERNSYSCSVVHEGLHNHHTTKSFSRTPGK
Test: SPR Biacore, mAb captured via anti-hFc, 37 C
Procedure: as §1, §2

Binder | 100 nM Ag Bound (RU) | Kd [nM] | koff [s⁻¹] | kon [M⁻¹ s⁻¹] | t½ [min]
B7 | 140 | 0.0566 | 9.45e-05 | 1.67e+06 | 122
B8 | 130 | 8.33 | 0.00196 | 236000 | 6
B9 | 111 | 5.8 | 0.00114 | 196000 | 10

Each binder was assayed against T4, rat GP130 extracellular domain expressed with a C-terminal myc-myc-hexahistidine tag (rGP130-mmH) (rat, UniProt P40190 23-618) (assay: SPR Biacore, mAb captured via anti-hFc, 37 C).
T4 construct: Monomeric; the entry includes the myc-myc-His tag
Procedure: as §1, §2

T4 sequence (P40190 other isoform, or with tags, fused parts or gaps): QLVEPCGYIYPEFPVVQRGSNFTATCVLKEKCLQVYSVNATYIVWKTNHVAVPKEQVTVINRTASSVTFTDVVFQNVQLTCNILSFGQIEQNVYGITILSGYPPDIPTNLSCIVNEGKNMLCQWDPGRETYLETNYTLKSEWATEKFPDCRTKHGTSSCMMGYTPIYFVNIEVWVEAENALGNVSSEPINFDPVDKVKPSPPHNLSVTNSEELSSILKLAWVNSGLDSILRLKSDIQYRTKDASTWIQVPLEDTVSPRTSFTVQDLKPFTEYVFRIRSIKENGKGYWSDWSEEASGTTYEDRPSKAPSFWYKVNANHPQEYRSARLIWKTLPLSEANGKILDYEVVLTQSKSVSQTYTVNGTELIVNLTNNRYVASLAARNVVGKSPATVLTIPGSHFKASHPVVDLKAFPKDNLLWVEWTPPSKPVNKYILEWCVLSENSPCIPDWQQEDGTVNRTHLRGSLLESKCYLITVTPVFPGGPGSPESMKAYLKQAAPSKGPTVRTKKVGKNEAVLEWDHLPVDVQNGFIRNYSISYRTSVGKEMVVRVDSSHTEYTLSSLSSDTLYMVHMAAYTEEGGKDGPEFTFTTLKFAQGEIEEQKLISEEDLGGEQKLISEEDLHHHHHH

Binder | 100 nM Ag Bound (RU)
B7 | 0
B8 | 1
B9 | 0

What follows are binders tested against T5, mouse GP130 extracellular domain expressed with a C-terminal myc-myc-hexahistidine tag (mGP130-mmH) (mouse, UniProt Q00560 23-617) (assay: SPR Biacore, mAb captured via anti-hFc, 37 C).
T5 construct: Monomeric; the entry includes the myc-myc-His tag
Procedure: as §1, §2

T5 sequence (Q00560 other isoform, or with tags, fused parts or gaps): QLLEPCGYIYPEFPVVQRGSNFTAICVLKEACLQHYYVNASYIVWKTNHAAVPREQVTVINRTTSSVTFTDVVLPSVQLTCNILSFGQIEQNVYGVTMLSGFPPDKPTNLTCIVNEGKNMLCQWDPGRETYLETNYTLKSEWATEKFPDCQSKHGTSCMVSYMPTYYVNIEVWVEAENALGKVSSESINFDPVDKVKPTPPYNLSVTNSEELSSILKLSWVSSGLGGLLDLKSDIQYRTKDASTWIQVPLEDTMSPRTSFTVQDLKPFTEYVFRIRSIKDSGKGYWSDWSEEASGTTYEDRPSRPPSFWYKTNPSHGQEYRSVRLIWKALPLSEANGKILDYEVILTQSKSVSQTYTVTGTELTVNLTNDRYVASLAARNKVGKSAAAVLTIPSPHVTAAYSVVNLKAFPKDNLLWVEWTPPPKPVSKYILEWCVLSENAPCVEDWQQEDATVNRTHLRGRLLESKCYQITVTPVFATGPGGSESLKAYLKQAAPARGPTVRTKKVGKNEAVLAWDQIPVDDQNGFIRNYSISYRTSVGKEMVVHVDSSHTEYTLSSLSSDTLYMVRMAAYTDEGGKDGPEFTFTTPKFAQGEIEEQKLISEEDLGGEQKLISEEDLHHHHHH

Binder | 100 nM Ag Bound (RU) | binding result
B7 | 0 | no binding (tested: 100 nM)
B8 | 0 | no binding (tested: 100 nM)
B9 | 0 | no binding (tested: 100 nM)

Target: T3, human GP130 extracellular domain …
Test: SPR Biacore, mAb captured via anti-hFc, 25 C
Procedure: as §1, §2

Binder | 100 nM Ag Bound (RU) | Kd [nM] | koff [s⁻¹] | kon [M⁻¹ s⁻¹] | t½ [min]
B7 | 119 | 0.0836 | 7.13e-05 | 853000 | 162
B8 | 126 | 2.1 | 0.000361 | 172000 | 32
B9 | 107 | 1.86 | 0.000311 | 167000 | 37

The binders below were run against T4, rat GP130 extracellular domain … (assay: SPR Biacore, mAb captured via anti-hFc, 25 C).
Procedure: as §1, §2

Binder | 100 nM Ag Bound (RU) | binding result
B7 | 0 | no binding (tested: 100 nM)
B8 | 0 | no binding (tested: 100 nM)
B9 | 0 | no binding (tested: 100 nM)

These binders were tested against T5, mouse GP130 extracellular domain … (assay: SPR Biacore, mAb captured via anti-hFc, 25 C).
Procedure: as §1, §2

Binder | 100 nM Ag Bound (RU)
B7 | 0
B8 | 1
B9 | 0

These binders were tested against T6, mouse GP130 extracellular domain expressed with a C-terminal myc-myc-hexahistidine tag (mouse, UniProt Q00560 23-617) (assay: SPR).
T6 construct: monomeric; also called mGP130-mmH; mGP130-MMH
Procedure: as §1, §2

T6 sequence (Q00560 other isoform, or with tags, fused parts or gaps): as above

Binder | binding result
B1 | no binding (tested: 100 nM)
B2 | no binding (tested: 100 nM)
B4 | no binding (tested: 100 nM)
B3 | no binding (tested: 100 nM)
B5 | no binding (tested: 100 nM)
B6 | no binding (tested: 100 nM)
B10 | no binding (tested: 100 nM)
